Results published in patent US20140004122A1, “METHODS FOR TREATING OR PREVENTING CHOLESTEROL RELATED DISORDERS” (AMGEN INC., priority 2011, published 2014).
Marks after values point to notes of the source that are not given here.

Columns and labels:
[1] = tested on: hypercholesterolemic subjects with a 10 year Framingham risk score of 10% or less; assay: 12 week monotherapy dose-ranging study (Example 24); assay type: in vivo, human; conditions: for mean percent reduction from baseline in LDL-C: preliminary; for Least squares mean percent change from baseline (%) in LDL-C / Treatment difference vs ezetimibe (%) in LDL-C / Treatment difference vs placebo (%) in LDL-C: week 12; for Treatment difference vs ezetimibe (%) in LDL-C / Treatment difference vs placebo (%) in LDL-C: P < 0.001
Protocol: Ezetimibe was not blinded. The end-of-study visit and the last estimation of lipids was at week 12 for subjects on Q4W IP schedule or on ezetimibe and week 14 for subjects on Q2W IP schedule.
Males and females, ≧18 to ≦75 years of age, were eligible for this study. Fasting LDL-C was ≧100 mg/dL (2.6 mmol/L) and <190 mg/dL (4.9 mmol/L) and fasting triglycerides ≦400 mg/dL (4.5 mmol/L) by central laboratory at screening.
The primary endpoint was the percent change from baseline in LDL-C at week 12. Secondary endpoints included percent changes in apolipoprotein B (ApoB), lipoprotein (a) (Lp(a)), and in the ratio of total cholesterol to high-density lipoprotein (HDL)-C. Tolerability and safety were also evaluated.

[2] = tested on: subjects with hypercholesterolemia on a statin; assay: 12 week dose-ranging study in combination with statin (Example 25); assay type: in vivo, human; conditions: preliminary
Protocol: Randomization will be stratified by screening LDL-C level (<130 mg/dL [3.4 mmol/L] vs≧130 mg/dL) and ezetimibe use at baseline (yes vs no). Randomization should occur within 5-10 days of the screening LDL-C evaluation used to determine eligibility. Study visits are every 2 weeks, irrespective whether the subject receives Q2W SC or Q4W treatment. […] The end-of-study visit and the last estimation of lipids is at week 12 for subjects on Q4W IP schedule and week 14 for subjects on Q2W IP schedule.
Males and females, ≧18 to ≦80 years of age, are eligible for this study. For enrollment, subjects must be on a statin, with or without ezetimibe, with stable dose(s) for at least 4 weeks before LDL-C screening and not requiring uptitration. Fasting LDL-C at screening must be ≧85 mg/dL (2.2 mmol/L). Enrollment of subjects with screening fasting LDL-C between ≧85 mg/dL (2.2 mmol/L) and <100 mg/dL (2.6 mmol/L) will be limited to no more than approximately 20% of total planned enrollment. Fasting triglycerides must be ≦400 mg/dL (4.5 mmol/L) as determined by the central laboratory analysis at screening.

human PCSK9 = human PCSK9 (Homo sapiens, UniProt Q8NBP7); assay: BIAcore affinity analysis; assay type: binding; conditions: human PCSK9, pH 6.0, n=1
[3] = 70 mg (Q2W), end of the dosing interval
[4] = 105 mg (Q2W), end of the dosing interval
[5] = 280 mg (Q4W), end of the dosing interval
[6] = 350 mg, end of the dosing interval
[7] = 280 mg (Q2W as printed), end of the dosing interval
[8] = 350 mg (Q2W as printed), end of the dosing interval

Sequence of human PCSK9 (Q8NBP7 153-692): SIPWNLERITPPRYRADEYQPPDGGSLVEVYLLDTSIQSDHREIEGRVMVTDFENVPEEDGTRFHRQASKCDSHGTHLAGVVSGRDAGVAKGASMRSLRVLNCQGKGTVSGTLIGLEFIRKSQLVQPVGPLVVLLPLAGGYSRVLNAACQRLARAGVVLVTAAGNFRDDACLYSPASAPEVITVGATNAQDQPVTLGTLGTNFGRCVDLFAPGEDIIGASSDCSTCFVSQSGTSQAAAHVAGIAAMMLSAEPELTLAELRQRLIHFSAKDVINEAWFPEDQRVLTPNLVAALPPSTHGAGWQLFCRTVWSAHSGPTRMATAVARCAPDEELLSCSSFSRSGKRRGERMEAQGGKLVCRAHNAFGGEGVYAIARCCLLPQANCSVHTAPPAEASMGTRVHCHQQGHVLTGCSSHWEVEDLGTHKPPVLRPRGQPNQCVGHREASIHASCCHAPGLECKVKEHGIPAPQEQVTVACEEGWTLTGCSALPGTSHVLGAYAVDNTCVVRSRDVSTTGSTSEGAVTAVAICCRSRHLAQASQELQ

B1: 21B12: human anti-PCSK9 monoclonal antibody; light/heavy variable region SEQ ID NO 23/49 (antibody, listed as Homo sapiens, V domains shown)
VH: QVQLVQSGAEVKKPGASVKVSCKASGYTLTSYGISWVRQAPGQGLEWMGWVSFYNGNTNYAQKLQGRGTMTTDPSTSTAYMELRSLRSDDTAVYYCARGYGMDVWGQGTTVTVSS
VL: QSALTQPASVSGSPGQSITISCTGTSSDVGGYNSVSWYQQHPGKAPKLMIYEVSNRPSGVSNRFSGSKSGNTASLTISGLQAEDEADYYCNSYTSTSMVFGGGTKLTVL
- mean percent reduction from baseline in LDL-C [1, 3]: 41.21%
- mean percent reduction from baseline in LDL-C [1, 4]: 45.44%
- mean percent reduction from baseline in LDL-C ([1]; 140 mg (Q2W)): 51.56%
- mean percent reduction from baseline in LDL-C [1, 5]: 37.53%
- mean percent reduction from baseline in LDL-C [1, 6]: 42.16%
- mean percent reduction from baseline in LDL-C ([1]; 420 mg): 47.52%
- LDL-C reductions from baseline greater than ezetimibe ([1]; final data): 37%
- change in LDL-C from baseline to week 12 greater than with placebo ([1]; final data): up to 72 mg/dL
- mean reduction from baseline for ApoB ([1]; final data): up to 44%
- mean reduction from baseline for Lp(a) ([1]; final data): up to 29%
- least-squares (LS) mean percent reduction from baseline in LDL-C ([1]; week 12, final data): up to 51%
- Least squares mean percent change from baseline (%) in LDL-C ([1]; Q2W 70 mg SC (N = 45)): −40.98%
- Treatment difference vs ezetimibe (%) in LDL-C ([1]; Q2W 70 mg): −26.73* %
- Treatment difference vs placebo (%) in LDL-C ([1]; Q2W 70 mg): −37.27* %
- Least squares mean percent change from baseline (%) in LDL-C ([1]; Q2W 105 mg SC (N = 46)): −43.87%
- Treatment difference vs ezetimibe (%) in LDL-C ([1]; Q2W 105 mg): −29.62* %
- Treatment difference vs placebo (%) in LDL-C ([1]; Q2W 105 mg): −40.17* %
- Least squares mean percent change from baseline (%) in LDL-C ([1]; Q2W 140 mg SC (N = 45)): −50.93%
- Treatment difference vs ezetimibe (%) in LDL-C ([1]; Q2W 140 mg): −36.68* %
- Treatment difference vs placebo (%) in LDL-C ([1]; Q2W 140 mg): −47.23* %
- Least squares mean percent change from baseline (%) in LDL-C ([1]; Q4W 280 mg SC (N = 45)): −39.02%
- Treatment difference vs ezetimibe (%) in LDL-C ([1]; Q4W 280 mg): −25.17* %
- Treatment difference vs placebo (%) in LDL-C ([1]; Q4W 280 mg): −43.57* %
- Least squares mean percent change from baseline (%) in LDL-C ([1]; Q4W 350 mg SC (N = 45)): −43.20%
- Treatment difference vs ezetimibe (%) in LDL-C ([1]; Q4W 350 mg): −29.34* %
- Treatment difference vs placebo (%) in LDL-C ([1]; Q4W 350 mg): −47.74* %
- Least squares mean percent change from baseline (%) in LDL-C ([1]; Q4W 420 mg SC (N = 45)): −47.98%
- Treatment difference vs ezetimibe (%) in LDL-C ([1]; Q4W 420 mg): −34.14* %
- Treatment difference vs placebo (%) in LDL-C ([1]; Q4W 420 mg): −52.53* %
- LS mean percent increase from baseline in HDL-C [2, 3]: 21.17%
- LS mean percent reduction from baseline in LDL-C [2, 3]: 39.22%
- LS mean percent reduction from baseline in Lp(a) [2, 3]: 21.17%
- LS mean percent reduction from baseline in VLDL-C [2, 3]: 14.84%
- LS mean percent reduction from baseline in non-HDL-C [2, 3]: 36.20%
- LS mean percent reduction from baseline in total cholesterol [2, 3]: 26.33%
- LS mean percent reduction from baseline in triglycerides [2, 3]: 7.20%
- LS mean percent increase from baseline in HDL-C [2, 4]: 6.80%
- LS mean percent reduction from baseline in LDL-C [2, 4]: 56.38%
- LS mean percent reduction from baseline in Lp(a) [2, 4]: 33.41%
- LS mean percent reduction from baseline in VLDL-C [2, 4]: 12.75%
- LS mean percent reduction from baseline in non-HDL-C [2, 4]: 51.20%
- LS mean percent reduction from baseline in total cholesterol [2, 4]: 36.91%
- LS mean percent reduction from baseline in triglycerides [2, 4]: 5.65%
- LS mean percent increase from baseline in HDL-C ([2]; 140 mg (Q2W)): 8.43%
- LS mean percent reduction from baseline in LDL-C ([2]; 140 mg (Q2W)): 68.76%
- LS mean percent reduction from baseline in Lp(a) ([2]; 140 mg (Q2W)): 33.87%
- LS mean percent reduction from baseline in VLDL-C ([2]; 140 mg (Q2W)): 45.14%
- LS mean percent reduction from baseline in non-HDL-C ([2]; 140 mg (Q2W)): 64.61%
- LS mean percent reduction from baseline in total cholesterol ([2]; 140 mg (Q2W)): 46.17%
- LS mean percent reduction from baseline in triglycerides ([2]; 140 mg (Q2W)): 17.60%
- LS mean percent increase from baseline in HDL-C [2, 7]: 2.17%
- LS mean percent reduction from baseline in Lp(a) [2, 7]: 22.54%
- LS mean percent reduction from baseline in VLDL-C [2, 7]: 18.12%
- LS mean percent reduction from baseline in non-HDL-C [2, 7]: 38.89%
- LS mean percent reduction from baseline in total cholesterol [2, 7]: 28.08%
- LS mean percent reduction from baseline in triglycerides [2, 7]: 6.75%
- LS mean percent reduction from baseline in LDL-C [2, 5]: 42.62%
- LS mean percent increase from baseline in HDL-C [2, 8]: 6.92%
- LS mean percent reduction from baseline in Lp(a) [2, 8]: 29.43%
- LS mean percent reduction from baseline in VLDL-C [2, 8]: 20.89%
- LS mean percent reduction from baseline in non-HDL-C [2, 8]: 50.83%
- LS mean percent reduction from baseline in total cholesterol [2, 8]: 36.04%
- LS mean percent reduction from baseline in triglycerides [2, 8]: 9.17%
- LS mean percent reduction from baseline in LDL-C [2, 6]: 56.84%
- LS mean percent increase from baseline in HDL-C ([2]; 420 mg (Q2W as printed)): 7.42%
- LS mean percent reduction from baseline in Lp(a) ([2]; 420 mg (Q2W as printed)): 23.29%
- LS mean percent reduction from baseline in VLDL-C ([2]; 420 mg (Q2W as printed)): 28.66%
- LS mean percent reduction from baseline in non-HDL-C ([2]; 420 mg (Q2W as printed)): 48.54%
- LS mean percent reduction from baseline in total cholesterol ([2]; 420 mg (Q2W as printed)): 42.76%
- LS mean percent reduction from baseline in triglycerides ([2]; 420 mg (Q2W as printed)): 11.13%
- LS mean percent reduction from baseline in LDL-C ([2]; 420 mg): 52.19%
- Kd (human PCSK9): 7.3 pM
